According to US20180142032A1:

What was measured:
LAMP1::histag (human) [1] = biological target: LAMP1::histag (human) (UniProt P11279); assay: competition ELISA; H4A3 0.06 mg/L read with anti-mouse IgG; competitor chMAb3 15 mg/L
LAMP1::histag (human) [2] = biological target: LAMP1::histag (human) (UniProt P11279); assay: SPR (BIAcore 2000), mAb captured by anti-Fc, LAMP1 injected 1 to 256 nM
LAMP1::histag (human) [3] = biological target: LAMP1::histag (human) (UniProt P11279); assay: competition ELISA; H4A3 0.06 mg/L read with anti-mouse IgG; competitor chMAb2 15 mg/L
LAMP1::histag (human) [4] = biological target: LAMP1::histag (human) (UniProt P11279); assay: competition ELISA; H4A3 0.06 mg/L read with anti-mouse IgG; competitor chMAb1 15 mg/L
LAMP1::histag (human) [5] = biological target: LAMP1::histag (human) (UniProt P11279); assay: SPR (BIAcore 2000)

LAMP1::histag (human), sequence (P11279 other isoform, or with tags, fused parts or gaps): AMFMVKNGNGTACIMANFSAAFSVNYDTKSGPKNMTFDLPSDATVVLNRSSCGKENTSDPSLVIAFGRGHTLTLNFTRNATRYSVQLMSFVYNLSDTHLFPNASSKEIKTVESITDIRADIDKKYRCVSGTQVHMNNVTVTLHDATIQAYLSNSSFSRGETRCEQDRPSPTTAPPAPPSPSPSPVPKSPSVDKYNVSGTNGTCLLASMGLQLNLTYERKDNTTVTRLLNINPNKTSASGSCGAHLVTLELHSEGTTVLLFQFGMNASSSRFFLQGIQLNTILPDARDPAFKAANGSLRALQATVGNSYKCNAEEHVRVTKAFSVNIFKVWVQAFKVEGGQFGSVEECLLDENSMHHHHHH

In the case of H4A3 (BioLegend 328602) (antibody), the percentage of signal compared to mAb control alone (LAMP1::histag (human) [1]) is reported as 11%, the Kd (LAMP1::histag (human) [2]) is reported as 105 nM and the koff (LAMP1::histag (human) [2]) is reported as 0.00609 s⁻¹. It also gave a kon (LAMP1::histag (human) [2]) of 58000 M⁻¹ s⁻¹, a percentage of signal compared to mAb control alone (LAMP1::histag (human) [3]) of 57% and a percentage of signal compared to mAb control alone (LAMP1::histag (human) [4]) of 98%. It also gave a Kd (LAMP1::histag (human) [5]) of 100 nM.
